Measured values: the supplement of paper PMC11246515
± gives the standard deviation of the averaged measurements.

Assay: total protein half-life in vivo (active degradation + dilution); higher = more stable protein
[1] = E. coli NCM3722 delta-clpP delta-lon delta-hslV, growth: N-lim chemostat, doubling time 6 h
[2] = E. coli NCM3722 delta-clpP, growth: N-lim chemostat, doubling time 6 h
[3] = E. coli NCM3722 delta-hslV, growth: N-lim chemostat, doubling time 6 h
[4] = E. coli NCM3722 delta-lon, growth: N-lim chemostat, doubling time 6 h
[5] = E. coli NCM3722 delta-smpB, growth: N-lim chemostat, doubling time 6 h
[6] = wild type E. coli NCM3722, growth: C-lim chemostat, doubling time 3 h
[7] = wild type E. coli NCM3722, growth: C-lim chemostat, doubling time 6 h
[8] = wild type E. coli NCM3722, growth: C-lim chemostat, doubling time 12 h
[9] = wild type E. coli NCM3722, growth: N-lim chemostat, doubling time 6 h
[10] = wild type E. coli NCM3722, growth: N-lim chemostat, doubling time 12 h
[11] = wild type E. coli NCM3722, growth: P-lim chemostat, doubling time 6 h
[12] = wild type E. coli NCM3722, growth: P-lim chemostat, doubling time 12 h

Sequence | total protein half-life in vivo [1] [h] | total protein half-life in vivo [2] [h] | total protein half-life in vivo [3] [h] | total protein half-life in vivo [4] [h] | total protein half-life in vivo [5] [h] | total protein half-life in vivo [6] [h] | total protein half-life in vivo [7] [h] | total protein half-life in vivo [8] [h] | total protein half-life in vivo [9] [h] | total protein half-life in vivo [10] [h] | total protein half-life in vivo [11] [h] | total protein half-life in vivo [12] [h]
MDRRRFIKGSMAMAAVCGTSGIASLFSQAAFAADSDIADGQTQRFDFSILQSMAHDLAQTAWRGAPRPLPDTLATMTPQAYNSIQYDAEKSLWHNVENRQLDAQFFHMGMGFRRRVRMFSVDPATHLAREIHFRPELFKYNDAGVDTKQLEGQSDLGFAGFRVFKAPELARRDVVSFLGASYFRAVDDTYQYGLSARGLAIDTYTDSKEEFPDFTAFWFDTVKPGATTFTVYALLDSASITGAYKFTIHCEKSQVIMDVENHLYARKDIKQLGIAPMTSMFSCGTNERRMCDTIHPQIHDSDRLSMWRGNGEWICRPLNNPQKLQFNAYTDNNPKGFGLLQLDRDFSHYQDIMGWYNKRPSLWVEPRNKWGKGTIGLMEIPTTGETLDNIVCFWQPEKAVKAGDEFAFQYRLYWSAQPPVHCPLARVMATRTGMGGFSEGWAPGEHYPEKWARRFAVDFVGGDLKAAAPKGIEPVITLSSGEAKQIEILYIEPIDGYRIQFDWYPTSDSTDPVDMRMYLRCQGDAISETWLYQYFPPAPDKRQYVDDRVMS | 6.6 ± 0.085 | 6.09 ± 0.27 | 5.73 ± 0.087 | 5.99 ± 0.14 | 5.86 ± 0.28 | 3.22 ± 0.084 | 6.205 ± 0.046 | 12.5 ± 1.2 | 6.44 ± 0.42 | 12.6 ± 0.7 | 6.71 ± 0.95 | 12.628 ± 0.0049
MTWLPLNPIPLKDRVSMIFLQYGQIDVIDGAFVLIDKTGIRTHIPVGSVACIMLEPGTRVSHAAVRLAAQVGTLLVWVGEAGVRVYASGQPGGARSDKLLYQAKLALDEDLRLKVVRKMFELRFGEPAPARRSVEQLRGIEGSRVRATYALLAKQYGVTWNGRRYDPKDWEKGDTINQCISAATSCLYGVTEAAILAAGYAPAIGFVHTGKPLSFVYDIADIIKFDTVVPKAFEIARRNPGEPDREVRLACRDIFRSSKTLAKLIPLIEDVLAAGEIQPPAPPEDAQPVAIPLPVSLGDAGHRSS | 4.85 ± 0.84 | – | – | – | 1.32 ± 0.25 | 3.48 | 3.62 ± 1.9 | 5.4 | 1.32 | – | 2.23 | –
MNEFFPLASAAGMTVGLAVCALIVGLALAMFFAVWESAKWRPVAWAGSALVTILRGLPEILVVLFIYFGSSQLLLTLSDGFTINLGFVQIPVQMDIENFDVSPFLCGVIALSLLYAAYASQTLRGALKAVPVGQWESGQALGLSKSAIFFRLVMPQMWRHALPGLGNQWLVLLKDTALVSLISVNDLMLQTKSIATRTQEPFTWYIVAAAIYLVITLLSQYILKRIDLRATRFERRPS [P0AE34] | 7.86 | 6.25 | 6.66 ± 0.82 | 6.45 | – | 2.92 ± 0.51 | 6.02 ± 0.79 | 11.9 ± 0.15 | – | 11.5 ± 2.6 | 6.78 | 12.3 ± 0.57
MNITATVLLAFGMSMDAFAASIGKGATLHKPKFSEALRTGLIFGAVETLTPLIGWGMGMLASRFVLEWNHWIAFVLLIFLGGRMIIEGFRGADDEDEEPRRRHGFWLLVTTAIATSLDAMAVGVGLAFLQVNIIATALAIGCATLIMSTLGMMVGRFIGSIIGKKAEILGGLVLIGIGVQILWTHFHG | – | – | 5.5 | – | – | – | – | – | – | – | – | 8.23
MNITPFPTLSPATIDAINVIGQWLAQDDFSGEVPYQADCVILAGNAVMPTIDAACKIARDQQIPLLISGGIGHSTTFLYSAIAQHPHYNTIRTTGRAEATILADIAHQFWHIPHEKIWIEDQSTNCGENARFSIALLNQAVERVHTAIVVQDPTMQRRTMATFRRMTGDNPDAPRWLSYPGFVPQLGNNADSVIFINQLQGLWPVERYLSLLTGELPRLRDDSDGYGPRGRDFIVHVDFPAEVIHAWQTLKHDAVLIEAMESRSLR | 5.66 ± 0.067 | 4.38 ± 0.065 | 3.92 ± 0.042 | 4.66 ± 0.2 | 3.96 ± 0.27 | > 4 | 5.74 ± 0.29 | 10.9 ± 1.3 | 4.35 ± 0.28 | 6.81 ± 1.1 | 6.023 ± 0.049 | 11.4 ± 0.21
MSAIDCIITAAGLSSRMGQWKMMLPWEQGTILDTSIKNALQFCSRIILVTGYRGNELHERYANQSNITIIHNPDYAQGLLTSVKAAVPAVQTEHCFLTHGDMPTLTIDIFRKIWSLRNDGAILPLHNGIPGHPILVSKPCLMQAIQRPNVTNMRQALLMGDHYSVEIENAEIILDIDTPDDFITAKERYTEI | 4.34 | 3 ± 0.059 | – | – | 1.3 | – | 2.39 ± 0.048 | 3.15 ± 0.1 | – | – | – | –
MATLFIADLHLCVEEPAITAGFLRFLAGEARKADALYILGDLFEAWIGDDDPNPLHRKMAAAIKAVSDSGVPCYFIHGNRDFLLGKRFARESGMTLLPEEKVLELYGRRVLIMHGDTLCTDDAGYQAFRAKVHKPWLQTLFLALPLFVRKRIAARMRANSKEANSSKSLAIMDVNQNAVVSAMEKHQVQWLIHGHTHRPAVHELIANQQPAFRVVLGAWHTEGSMVKVTADDVELIHFPF | 5.85 ± 1.3 | 5.94 ± 0.2 | 6.87 ± 0.8 | – | 5.781 ± 0.025 | 3.14 ± 0.045 | – | 13.1 ± 0.46 | 6.36 ± 0.95 | 12.4 ± 0.57 | 6.49 ± 0.51 | 12 ± 0.37
MIIPALDLIDGTVVRLHQGDYGKQRDYGNDPLPRLQDYAAQGAEVLHLVDLTGAKDPAKRQIPLIKTLVAGVNVPVQVGGGVRSEEDVAALLEAGVARVVVGSTAVKSQDMVKGWFERFGADALVLALDVRIDEQGNKQVAVSGWQENSGVSLEQLVETYLPVGLKHVLCTDISRDGTLAGSNVSLYEEVCARYPQVAFQSSGGIGDIDDVAALRGTGVRGVIVGRALLEGKFTVKEAIACWQNA | 4.64 ± 0.11 | 3.46 ± 0.32 | 4.07 ± 0.29 | 4.52 ± 0.096 | 3.23 ± 0.34 | 3.21 ± 0.094 | 5.72 ± 0.66 | 10 ± 1.4 | 3.66 ± 0.097 | 5.29 ± 0.65 | 5.28 ± 0.072 | 9.43 ± 0.71
